Reference: article PMC12395051

How the values were obtained:
[1] = molecular target: Recombinant SARS-CoV-2 spike (S) protein (SARS-CoV-2) (UniProt P0DTC2)
[2] = molecular target: Recombinant SARS-CoV-2 spike (S) protein (SARS-CoV-2) (UniProt P0DTC2); remark: listed apart in the source

Substance | luciferase reporter activity: entry of SARS-CoV-2 S lentiviral pseudoparticles pre-treated with FH (20 ug/ml) into A549-hACE2+TMPRSS2 cells, reduction against untreated pseudoparticles [1] [%] | cell binding assay: binding of SARS-CoV-2 S lentiviral pseudoparticles pre-treated with FH (20 ug/ml) to A549-hACE2+TMPRSS2 cells, decrease against untreated pseudoparticles [2] [%] | luciferase reporter activity: entry of SARS-CoV-2 S lentiviral pseudoparticles pre-treated with FP (20 ug/ml) into A549-hACE2+TMPRSS2 cells, increase against untreated pseudoparticles [1] [%] | cell binding assay: binding of SARS-CoV-2 S lentiviral pseudoparticles pre-treated with FP (20 ug/ml) to A549-hACE2+TMPRSS2 cells, increase against untreated pseudoparticles [2] [%]
Human complement factor H (from UniProt P08603 19-1231) (natural protein) | 25 | 35 | – | –
Human native properdin (from UniProt P27918 28-469) (natural protein) | – | – | 80 | 30
